According to paper PMC10527483:

Key:
Test in all cases: pull-down
[1] = target: T1, QKI6 (human, UniProt Q96PU8-9 1-319)
T1 sequence: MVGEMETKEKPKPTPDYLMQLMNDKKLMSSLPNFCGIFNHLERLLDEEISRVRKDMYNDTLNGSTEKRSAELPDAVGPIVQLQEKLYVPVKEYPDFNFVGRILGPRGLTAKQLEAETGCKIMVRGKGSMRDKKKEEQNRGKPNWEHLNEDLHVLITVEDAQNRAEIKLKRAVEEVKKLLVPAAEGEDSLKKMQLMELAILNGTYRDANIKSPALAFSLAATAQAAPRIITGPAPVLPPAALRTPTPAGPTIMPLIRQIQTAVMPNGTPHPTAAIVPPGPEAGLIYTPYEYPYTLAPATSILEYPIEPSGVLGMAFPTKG

[2] = target: T2, QKI5 (human, UniProt Q96PU8 1-341)
T2 sequence: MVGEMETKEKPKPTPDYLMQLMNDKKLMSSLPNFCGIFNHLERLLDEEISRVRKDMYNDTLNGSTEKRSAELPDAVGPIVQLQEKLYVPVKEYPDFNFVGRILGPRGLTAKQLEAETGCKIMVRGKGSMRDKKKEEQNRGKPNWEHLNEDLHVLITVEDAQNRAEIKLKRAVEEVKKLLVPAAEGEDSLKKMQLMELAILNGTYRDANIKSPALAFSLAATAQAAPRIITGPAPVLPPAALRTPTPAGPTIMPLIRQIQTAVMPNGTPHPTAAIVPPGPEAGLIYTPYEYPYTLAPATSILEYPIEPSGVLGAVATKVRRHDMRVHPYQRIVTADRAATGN

[3] = target: T3, QKI7 (human, UniProt Q96PU8-6 1-325)
T3 sequence: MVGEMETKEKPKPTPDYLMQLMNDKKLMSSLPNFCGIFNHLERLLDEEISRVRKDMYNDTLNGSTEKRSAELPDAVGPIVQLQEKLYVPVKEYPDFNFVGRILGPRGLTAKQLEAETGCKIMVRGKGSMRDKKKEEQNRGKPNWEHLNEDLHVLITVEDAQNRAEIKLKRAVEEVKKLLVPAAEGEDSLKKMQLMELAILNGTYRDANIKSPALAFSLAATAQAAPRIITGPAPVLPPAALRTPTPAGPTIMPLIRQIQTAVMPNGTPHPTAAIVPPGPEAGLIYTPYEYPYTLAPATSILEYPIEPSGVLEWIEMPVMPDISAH

Measured: binding result

B1: m7G-Oligo, 60-mer (ssRNA)
RNA: CCAAUAAAAUAUUAACCACCAAUAAAAUAUUAACCAAGAUCCACCAAUAAAAUAUUAACC
modifications: N7-methylguanosine at G38 (the only G)
binds: [1] | [2] | [3]
